Test results taken from patent US12440565.

Molecular target: CD40 on the surface of mature dendritic cells (mDC) (human) (UniProt P25942)
Assay: cell-based or functional assay

Chain of CD40 on the surface of mature dendritic cells (mDC) (human) (P25942 21-277): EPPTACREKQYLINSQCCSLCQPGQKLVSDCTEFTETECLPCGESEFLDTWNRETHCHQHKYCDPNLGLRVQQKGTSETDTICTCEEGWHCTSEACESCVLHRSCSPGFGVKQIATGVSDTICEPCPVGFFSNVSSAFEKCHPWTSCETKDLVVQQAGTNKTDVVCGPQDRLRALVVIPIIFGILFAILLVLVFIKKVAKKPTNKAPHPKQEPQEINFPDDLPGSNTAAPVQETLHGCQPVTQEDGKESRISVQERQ

B1: Mitazalimab (antibody, INN chains, looked up, V domains shown)
VH: EVQLLESGGGLVQPGGSLRLSCAASGFTFSTYGMHWVRQAPGKGLEWLSYISGGSSYIFYADSVRGRFTISRDNSENALYLQMNSLRAEDTAVYYCARILRGGSGMDLWGQGTLVTVSS
VL: QSVLTQPPSASGTPGQRVTISCTGSSSNIGAGYNVYWYQQLPGTAPKLLIYGNINRPSGVPDRFSGSKSGTSASLAISGLRSEDEADYYCAAWDKSISGLVFGGGTKLTVL
B1 was tested, and the CD83+ (%) of mDC, agonist at 2 µg/mL (control group 81.00) was 95.7% and the IL-12p70 (pg/mL), agonist at 2 µg/mL (control group 50.0) was 1470 pg/mL.

B2: Cifurtilimab (antibody, INN chains, looked up, V domains shown)
VH: EVQLVESGGGLVQPGGSLRLSCAASGYSFTGYYIHWVRQAPGKGLEWVARVIPNAGGTSYNQKFKGRFTLSVDNSKNTAYLQMNSLRAEDTAVYYCAREGIYWWGQGTLVTVSS
VL: DIQMTQSPSSLSASVGDRVTITCRSSQSLVHSNGNTFLHWYQQKPGKAPKLLIYTVSNRFSGVPSRFSGSGSGTDFTLTISSLQPEDFATYFCSQTTHVPWTFGQGTKVEIK
For B2, the CD83+ (%) of mDC at 0.001 µg/mL Cifurtilimab was 83.4%, the CD83+ (%) of mDC at 0.01 µg/mL Cifurtilimab was 84.6% and the CD83+ (%) of mDC at 0.1 µg/mL Cifurtilimab was 93.3%. The CD83+ (%) of mDC at 1 µg/mL Cifurtilimab was 94.1%, the CD83+ (%) of mDC at 3 µg/mL Cifurtilimab was 95.7% and the CD83+ (%) of mDC at 10 µg/mL Cifurtilimab was 95.7%. For the same binder, the CD83+ (%) of mDC, agonist at 2 µg/mL (control group 81.00) was 93.2%, the CD83+ (%), Cifurtilimab together with Atezolizumab, batch 1 (control with Atezolizumab alone 92.69) was 96.9% and the CD83+ (%), Cifurtilimab together with Atezolizumab, batch 2 (control with Atezolizumab alone 64.27) was 92.3%. For the same binder, the CD83+ (%), Cifurtilimab together with Atezolizumab, batch 3 (control with Atezolizumab alone 89.18) was 97.6%, the CD83+ (%), Cifurtilimab together with Atezolizumab, batch 4 (control with Atezolizumab alone 75.24) was 96.1% and the IL-12p70 (pg/mL) at 0.001 µg/mL Cifurtilimab was 10.2 pg/mL. The IL-12p70 (pg/mL) at 0.01 µg/mL Cifurtilimab was 10 pg/mL, the IL-12p70 (pg/mL) at 0.1 µg/mL Cifurtilimab was 309 pg/mL and the IL-12p70 (pg/mL) at 1 µg/mL Cifurtilimab was 312 pg/mL. It also gave an IL-12p70 (pg/mL) at 3 µg/mL Cifurtilimab of 397 pg/mL, an IL-12p70 (pg/mL) at 10 µg/mL Cifurtilimab of 402 pg/mL and an IL-12p70 (pg/mL), Cifurtilimab together with Atezolizumab, batch 1 (control with Atezolizumab alone 4.1) of 450 pg/mL. For the same binder, the IL-12p70 (pg/mL), Cifurtilimab together with Atezolizumab, batch 2 (control with Atezolizumab alone 4.8) was 1220 pg/mL, the IL-12p70 (pg/mL), Cifurtilimab together with Atezolizumab, batch 3 (control with Atezolizumab alone 5.7) was 1110 pg/mL and the IL-12p70 (pg/mL), Cifurtilimab together with Atezolizumab, batch 4 (control with Atezolizumab alone 5.0) was 454 pg/mL. For the same binder, the IL-12p70 (pg/mL), agonist at 2 µg/mL (control group 50.0) was 1490 pg/mL, the functional and activity indices of mDC (CD83, IL-12, T cell activation) against antibody concentration was greater than 0.1 µg/mL and the increase of IFN-γ secreting T cells over control, Cifurtilimab together with Atezolizumab was 21.8%. For the same binder, the increase rate of CD83 positive ratio over control, Cifurtilimab together with Atezolizumab was 19.1%, the mean CD83+ cells (%), Cifurtilimab together with Atezolizumab (control 80.35%) was 95.7% and the mean IL-12 secretion, Cifurtilimab together with Atezolizumab (control 4.9 pg/mL) was 746 pg/mL.
